The values that follow are results of earlier work, collected in PMC9256694.

Broadly, the Kd is the free concentration of one partner at which half of the binding sites on the other are occupied at equilibrium, for simple one-to-one binding.

In the data set the target is IL-2 receptor beta/gamma common chain (Homo sapiens) (UniProt P14784).
Sequence of UniProt P14784 (P14784 27-240, chain 1 of 2): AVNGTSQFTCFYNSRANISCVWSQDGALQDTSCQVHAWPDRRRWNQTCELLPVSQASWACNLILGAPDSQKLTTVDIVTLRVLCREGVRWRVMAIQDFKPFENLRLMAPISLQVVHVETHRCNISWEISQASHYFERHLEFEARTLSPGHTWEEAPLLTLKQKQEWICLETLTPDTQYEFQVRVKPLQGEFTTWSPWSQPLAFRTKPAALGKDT
Sequence of UniProt P14784 (P31785 23-262, chain 2 of 2, further chain): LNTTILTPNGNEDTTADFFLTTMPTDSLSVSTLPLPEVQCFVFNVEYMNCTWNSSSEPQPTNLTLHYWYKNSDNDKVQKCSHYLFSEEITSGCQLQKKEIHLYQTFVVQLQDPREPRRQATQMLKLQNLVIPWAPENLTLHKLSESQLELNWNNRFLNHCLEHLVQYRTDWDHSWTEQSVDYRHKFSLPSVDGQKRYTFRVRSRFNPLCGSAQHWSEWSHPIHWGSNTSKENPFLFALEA

Sequence of IL-2 (P60568 21-153): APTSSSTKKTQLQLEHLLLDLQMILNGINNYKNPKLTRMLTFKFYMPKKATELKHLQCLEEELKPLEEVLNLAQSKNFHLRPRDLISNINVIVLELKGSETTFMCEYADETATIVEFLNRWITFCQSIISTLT

Take IL-2 (from UniProt P60568): the Kd is 1 nM.
